Assay results as given in US20200283847, “TEST KIT FOR DETECTING CONCENTRATION OF CARDIOVASCULAR DISEASE-RELATED BIOMARKER AND CONCENTRATION DETECTION METHOD FOR DETECTING CONCENTRATION OF CARDIOVASCULAR DISEASE-RELATED BIOMARKER” (National Tsing Hua University, published 2020).

Columns and labels:
[1] = biological target: T1, hcTnI (human cardiac troponin I) (Homo sapiens, UniProt P19429 P19429:2-210); experiment: antibody luminescence assay
Procedure: (§1) Firstly, the binding affinities of the first aptamer, the second aptamer, and the third aptamer contained in the test kit for detecting the concentration of the cardiovascular disease-related biomarker of the present disclosure are tested. The surface plasmon resonance (SPR) method is used in the binding affinity test to measure the signal changes and calculate the dissociation constant (Kd) of the first aptamer, the second aptamer and the third aptamer against their respective target proteins. Alternatively, a primary antibody against the target protein and secondary antibody conjugated with an enzyme is used in test. The binding affinities of the first aptamer, the second aptamer, and the third aptamer against their respective target proteins are measured by detecting the intensities of luminescence.
The curves of binding affinity curve are plotted with luminescence intensity of the first aptamer, the second aptamer or the third aptamer with its target protein. The first aptamer, the second aptamer or the third aptamer is bound to the target protein. And then the aptamer-protein complex is incubated with antibodies against target proteins and further with secondary antibodies conjugated with the enzyme, which could produce luminescence when providing substrates. The signal of luminescence of the first aptamer, the second aptamer or the third aptamer is detected. […]

[2] = biological target: T2, BSA (bovine serum albumin) (Bos taurus, UniProt P02769 P02769:25-607); experiment: pulldown; protein-coated magnetic beads, qPCR
T2 sequence (P02769 25-607, one chain of several): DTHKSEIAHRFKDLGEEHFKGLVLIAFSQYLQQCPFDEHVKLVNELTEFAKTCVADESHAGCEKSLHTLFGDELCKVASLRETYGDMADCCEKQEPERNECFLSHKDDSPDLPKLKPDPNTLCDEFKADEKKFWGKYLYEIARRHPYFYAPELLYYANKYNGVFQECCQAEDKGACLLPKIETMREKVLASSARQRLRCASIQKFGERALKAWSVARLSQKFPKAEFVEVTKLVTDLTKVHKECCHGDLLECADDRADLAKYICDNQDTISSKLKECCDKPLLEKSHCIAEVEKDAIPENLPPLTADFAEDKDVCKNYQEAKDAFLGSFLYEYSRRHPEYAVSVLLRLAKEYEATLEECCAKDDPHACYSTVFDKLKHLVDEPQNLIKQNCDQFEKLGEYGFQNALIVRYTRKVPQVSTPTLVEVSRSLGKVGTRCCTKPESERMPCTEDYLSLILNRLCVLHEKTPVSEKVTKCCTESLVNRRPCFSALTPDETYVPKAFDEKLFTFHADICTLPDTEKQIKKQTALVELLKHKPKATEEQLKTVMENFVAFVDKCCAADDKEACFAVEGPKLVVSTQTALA
Source text: (§2) In the specificity test, the single-stranded DNA of the first aptamer, the second aptamer and the third aptamer are synthesized first. The magnetic beads coated with the target protein or the non-target protein are mixed with the first aptamer, the second aptamer or the third aptamer, and then the magnetic beads are captured by the magnet and the aptamers which are not bound to the magnetic beads are washed away. Then, the magnetic beads are heated to denature the proteins on the magnetic beads for releasing the bound aptamers into the supernatant. Quantitative PCR is performed using the supernatant to analyze the number of residual aptamers, and compared with each other to test the specificity of the first aptamer, the second aptamer, and the third aptamer. In theory, a specific aptamer should only bind to its corresponding target protein, but not to a non-corresponding protein. The aptamers tested in the example are the first aptamer N20a, the second aptamer Tn2, and the third aptamer F03s.
(§3) Please refer to FIGS. 5A, 5B, 5C and 5D, which show specificity analysis results of a test kit for detecting the concentration of the cardiovascular disease-related biomarker according to one embodiment of the present disclosure. […] TT represents the hcTnI with the second aptamer Tn2, NT represents the NT-proBNP protein with the second aptamer Tn2, FT represents the fibrinogen protein with the second aptamer Tn2, and BT represents the BSA protein with the second aptamer Tn2. FF represents the fibrinogen protein with the third aptamer F03s, NF represents the NT-proBNP with the third aptamer F03s, TF represents the hcTnI with the third aptamer F03s, and BF represents the BSA protein with the third aptamer F03s.

[3] = biological target: T3, NT-proBNP (N-terminal pro-brain natriuretic peptide) (UniProt P16860 P16860:27-102); experiment: pulldown; protein-coated magnetic beads, qPCR
T3 sequence (P16860 27-102, one chain of several): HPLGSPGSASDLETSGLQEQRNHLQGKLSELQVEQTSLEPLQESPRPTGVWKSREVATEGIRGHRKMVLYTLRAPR
Source text: as §2, §3

[4] = biological target: T1, hcTnI (human cardiac troponin I); experiment: pulldown; protein-coated magnetic beads, qPCR
Source text: as §2, §3

fibrinogen [5] = biological target: T4, fibrinogen (UniProt P02671-2;P02675;P02679 P02671-2:20-644,P02675:31-491,P02679:27-453); experiment: SPR; details: chain copies: 2
T4 sequence (P02671 other isoform, or with tags, fused parts or gaps, chain 1 of 3): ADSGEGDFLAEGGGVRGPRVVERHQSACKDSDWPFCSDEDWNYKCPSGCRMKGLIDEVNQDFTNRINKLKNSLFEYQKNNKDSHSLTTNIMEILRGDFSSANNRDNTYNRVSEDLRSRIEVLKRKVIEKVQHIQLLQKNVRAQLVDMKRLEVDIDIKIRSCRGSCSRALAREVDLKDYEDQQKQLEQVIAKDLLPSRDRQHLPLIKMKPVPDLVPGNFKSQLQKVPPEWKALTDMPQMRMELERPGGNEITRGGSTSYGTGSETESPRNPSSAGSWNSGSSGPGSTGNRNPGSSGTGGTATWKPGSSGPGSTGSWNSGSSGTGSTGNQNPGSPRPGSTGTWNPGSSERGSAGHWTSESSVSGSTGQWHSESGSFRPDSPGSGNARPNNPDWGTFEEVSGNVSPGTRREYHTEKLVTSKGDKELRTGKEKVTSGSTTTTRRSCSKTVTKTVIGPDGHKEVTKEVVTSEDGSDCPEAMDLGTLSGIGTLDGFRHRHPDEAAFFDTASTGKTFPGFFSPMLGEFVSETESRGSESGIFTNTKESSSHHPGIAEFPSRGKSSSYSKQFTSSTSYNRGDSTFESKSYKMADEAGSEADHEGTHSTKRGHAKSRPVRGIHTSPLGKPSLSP
T4 sequence (P02675 31-491, chain 2 of 3): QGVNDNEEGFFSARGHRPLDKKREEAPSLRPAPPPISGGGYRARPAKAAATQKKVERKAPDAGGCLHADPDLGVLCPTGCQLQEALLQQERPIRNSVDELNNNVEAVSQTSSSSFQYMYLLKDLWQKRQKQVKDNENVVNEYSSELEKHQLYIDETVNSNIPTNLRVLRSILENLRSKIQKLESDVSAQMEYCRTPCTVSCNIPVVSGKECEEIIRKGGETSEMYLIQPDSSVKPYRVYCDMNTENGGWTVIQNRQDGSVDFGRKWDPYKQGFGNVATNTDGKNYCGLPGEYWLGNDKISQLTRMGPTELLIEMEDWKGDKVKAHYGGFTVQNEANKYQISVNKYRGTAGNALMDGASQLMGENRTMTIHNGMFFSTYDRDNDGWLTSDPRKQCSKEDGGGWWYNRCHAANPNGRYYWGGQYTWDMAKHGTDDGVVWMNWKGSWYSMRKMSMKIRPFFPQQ
T4 sequence (P02679 27-453, chain 3 of 3): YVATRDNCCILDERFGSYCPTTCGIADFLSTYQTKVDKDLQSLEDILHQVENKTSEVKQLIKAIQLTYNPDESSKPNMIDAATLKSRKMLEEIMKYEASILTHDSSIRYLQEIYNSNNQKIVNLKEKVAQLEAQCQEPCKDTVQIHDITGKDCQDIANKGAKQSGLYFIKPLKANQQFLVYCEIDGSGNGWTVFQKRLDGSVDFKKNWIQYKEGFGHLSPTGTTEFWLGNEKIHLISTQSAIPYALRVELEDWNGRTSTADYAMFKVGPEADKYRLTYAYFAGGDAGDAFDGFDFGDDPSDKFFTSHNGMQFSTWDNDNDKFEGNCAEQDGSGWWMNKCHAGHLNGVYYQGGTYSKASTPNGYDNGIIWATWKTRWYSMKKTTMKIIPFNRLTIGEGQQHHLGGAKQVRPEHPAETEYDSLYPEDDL
Procedure: as §1

[6] = biological target: T2, BSA (bovine serum albumin); experiment: pulldown; protein-coated magnetic beads, qPCR; also no dose-dependent signal in FIG. 7B
Procedure: as §2, with “The” for “In the specificity test, the single-stranded DNA of the first aptamer, the second aptamer and the third aptamer are synthesized first. The”
as §3

[7] = biological target: T3, NT-proBNP (N-terminal pro-brain …); experiment: as above
Procedure: as §2, with “The” for “In the specificity test, the single-stranded DNA of the first aptamer, the second aptamer and the third aptamer are synthesized first. The”
as §3

fibrinogen [8] = biological target: T4, fibrinogen; experiment: as above; details: chain copies: 2
Procedure: as §2, with “The” for “In the specificity test, the single-stranded DNA of the first aptamer, the second aptamer and the third aptamer are synthesized first. The”
as §3

[9] = biological target: T1, hcTnI (human cardiac troponin I); experiment: SPR
Procedure: as §1

fibrinogen [10] = biological target: T4, fibrinogen; experiment: pulldown; protein-coated magnetic beads, qPCR; details: chain copies: 2
Source text: as §2, §3

[11] = biological target: T3, NT-proBNP (N-terminal pro-brain …); experiment: SPR
Procedure: as §1

T1 sequence (P19429 2-210, one chain of several): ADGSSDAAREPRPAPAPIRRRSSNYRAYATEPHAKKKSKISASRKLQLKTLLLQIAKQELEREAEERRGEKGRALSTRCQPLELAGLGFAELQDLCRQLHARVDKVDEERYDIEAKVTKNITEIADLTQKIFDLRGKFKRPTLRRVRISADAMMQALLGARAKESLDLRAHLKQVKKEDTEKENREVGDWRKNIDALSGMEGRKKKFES

B1: cTni3 (ssDNA)
DNA: GGCAGGAAGACAAACAGGGGTACTTAGCATAGGAGTTTTGTTCTGTCGCACCTCGTTGGTCTGTGGTGCTGT
[1]
  Kd: 2.3 nM

B2: F03s (ssDNA)
DNA: GGCAGGAAGACAAACAGCACCGGGTCCGAAACAGGCTTAGGTATGATCACAGCTCATGGTCTGTGGTGCTGT
[2]
  binding result: no binding
[3]
  binding result: no binding
[4]
  binding result: no binding
Fibrinogen [5]
  Kd: 4.4 nM

B3: Tn2 (ssDNA)
DNA: GGCAGGAAGACAAACACCCAACCGAGGATGCAACGCTTGTTGTCATACTGTGATGTTGGTCTGTGGTGCTGT
[6]
  binding result: no binding
[7]
  binding result: no binding
Fibrinogen [8]
  binding result: no binding
[9]
  Kd: 19.8 nM

B4: cTni6 (ssDNA)
DNA: GGCAGGAAGACAAACACGGGGCGGCCGAAACAATGCGTTTCGGACCCAGCAACTCGTGGTCTGTGGTGCTGT
[1]
  Kd: 49.4 nM

B5: N20a (ssDNA)
DNA: GGCAGGAAGACAAACAGGTCGTAGTGGAAACTGTCCACCGTAGACCGGTTATCTAGTGGTCTGTGGTGCTGT
[2]
  binding result: no binding
Fibrinogen [10]
  binding result: no binding
[4]
  binding result: no binding
[11]
  Kd: 2.89 nM
